From PMC4402543 (Nucleic Acids Research, 2015)

Target: full-length His-PCAF fusion protein (human, UniProt Q92831 1-832)
Experiment: pull-down

Sequence of full-length His-PCAF fusion protein (Q92831 whole entry, the tested form may be a part): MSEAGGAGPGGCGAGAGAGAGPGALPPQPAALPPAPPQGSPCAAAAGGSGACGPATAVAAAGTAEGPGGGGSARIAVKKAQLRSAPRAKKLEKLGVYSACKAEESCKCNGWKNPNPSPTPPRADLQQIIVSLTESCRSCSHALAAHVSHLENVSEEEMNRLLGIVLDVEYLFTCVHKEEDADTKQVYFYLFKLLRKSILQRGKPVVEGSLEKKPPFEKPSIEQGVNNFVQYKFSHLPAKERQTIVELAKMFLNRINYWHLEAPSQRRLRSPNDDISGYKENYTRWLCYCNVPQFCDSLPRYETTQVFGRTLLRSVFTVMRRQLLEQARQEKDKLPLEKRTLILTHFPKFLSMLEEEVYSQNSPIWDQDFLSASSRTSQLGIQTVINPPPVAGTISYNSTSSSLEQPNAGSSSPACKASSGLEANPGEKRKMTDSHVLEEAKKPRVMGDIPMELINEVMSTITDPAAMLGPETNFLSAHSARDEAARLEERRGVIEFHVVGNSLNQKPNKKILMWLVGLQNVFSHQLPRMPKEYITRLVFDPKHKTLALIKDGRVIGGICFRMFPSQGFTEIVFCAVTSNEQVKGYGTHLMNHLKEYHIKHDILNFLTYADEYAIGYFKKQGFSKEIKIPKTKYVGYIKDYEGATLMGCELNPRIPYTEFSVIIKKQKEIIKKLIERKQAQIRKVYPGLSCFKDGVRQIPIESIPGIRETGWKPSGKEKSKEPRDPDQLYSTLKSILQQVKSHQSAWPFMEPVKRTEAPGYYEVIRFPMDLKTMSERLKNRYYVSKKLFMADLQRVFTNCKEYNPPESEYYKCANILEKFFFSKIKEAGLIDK

| binding result | Binder |
| --- | --- |
| binds | GST-EZH2 SET domain (610-746) (domain or fragment) not shown |
| binds | GST-EZH2 N-terminal domain (1-522) (domain or fragment) MGQTGKKSEKGPVCWRKRVKSEYMRLRQLKRFRRADEVKSMFSSNRQKILERTEILNQEWKQRRIQPVHILTSVSSLRGTRECSVTSDLDFPTQVIPLKTLNAVASVPIMYSWSPLQQNFMVEDETVLHNIPYMGDEVLDQDGTFIEELIKNYDGKVHGDRECGFINDEIFVELVNALGQYNDDDDDDDGDDPEEREEKQKDLEDHRDDKESRPPRKFPSDKIFEAISSMFPDKGTAEELKEKYKELTEQQLPGALPPECTPNIDGPNAKSVQREQSLHSFHTLFCRRCFKYDCFLHPFHATPNTYKRKNTETALDNKPCGPQCYQHLEGAKEFAAALTAERIKTPPKRPGGRRRGRLPNNSSRPSTPTINVLESKDTDSDREAGTETGGENNDKEEEEKKDETSSSSEANSRCQTPIKMKPNIEPPENVEWSGAEASMFRVLIGTYYDNFCAIARLIGTKTCRQVYEFRVKESSIIAPAPAEDVDTPPRKKKRKHRLWAAHCRKIQLKKDGSSNHVYNYQP |
